{"source": "patent US20240092847A1", "about": "“FUNCTIONAL NUCLEIC ACID MOLECULE AND METHOD” (The University Court of The University of Edinburgh, priority 2021, published 2024)", "molecules": {"B1": {"name": "SSE-1: synthetic super-enhancer ID1101_ID2904_ID0109_ID4328, SEQ ID NO: 64 (nucleic acid)", "DNA": "GTGAGTGTGACTCACATGCTGGCATCAGAGCCCCTCTTAGAGCTTAGAACACTGGGCCTCTGTCAGGCAAAGAAAAGGAGTCCCTATGAATAGCCATCTCCACAAATAGCAGTTACTGTCACTTCTTAAAAGACACAAGCATGGCTGGAGACCGGCACTGTGCATGTTCTTGGGAAAAAGTGGTATTTAATGAAGGCGCTTTGAGCTGAATCAAAGAGCCTCATTCTTCTGAAAGTCCTTCTTCCTAGTCTCTGCATCCGGCTCCTATCAAAGGAAATCCACAGCTTTGGCTTTTCGTTGCTGTTGTCATGGAAATCGTTGAAATTGGATCCTGAGGAGAATGTCACCACCTCTTTGACAATAACTAGCTTTCAGAGCTGAACACAGTGAATCTGGATACTGTGTATATGTTTAAATGAGTTAGGAAATGACATCACATTATTTATTTCTTCTTTTGTGACTTAGTAAATTGACTTGGCCTACAATCTATTCTCCATAGTCATCAGAGTTTCTTTAAAGGCACGGTTCAGACAATGGCACCCTCTGTTCCAAACCCTCCAGGGCTTCCTATTTCACTTAGCATAAAAACCAAAGTCCTCACAATGACCGACAAGTCTTCACACAATGTGCCCCTTCATTG"}, "B2": {"name": "SSE-2: synthetic super-enhancer ID0109_ID4328_ID0876_ID2339, SEQ ID NO: 65 (nucleic acid)", "DNA": "GAAATTGGATCCTGAGGAGAATGTCACCACCTCTTTGACAATAACTAGCTTTCAGAGCTGAACACAGTGAATCTGGATACTGTGTATATGTTTAAATGAGTTAGGAAATGACATCACATTATTTATTTCTTCTTTTGTGACTTAGTAAATTGACTTGGCCTACAATCTATTCTCCATAGTCATCAGAGTTTCTTTAAAGGCACGGTTCAGACAATGGCACCCTCTGTTCCAAACCCTCCAGGGCTTCCTATTTCACTTAGCATAAAAACCAAAGTCCTCACAATGACCGACAAGTCTTCACACAATGTGCCCCTTCATTGGAGCAGGCAGTCATTTGGTTCCCTTCTCTGAATGCATTGGCTCTGATCCACGGCGCCTCAGGAAGTGAAAGGGAGCAGGCAGTGAGGCCAAGCCATGAATGTTGGGCCCTTTTCTTAGAAAACAAAGGGTTCACTTTAGGCTAGGAGGAAACATCCGGGGGTCGGCGGAACTGAGTCTCCTTTGTGGAGCCCCTCATTTGCATGATAAACCCCGGGGACAAAGTGTGTTCTTGTTACTTGGACTGTTTCTTGGAAACTGCTGCTACCTGGAGCGAGTGAACACAGGGCAAGTATTCTCGCCCACAGCAACGTGTCATTGA"}, "B3": {"name": "SSE-3: synthetic super-enhancer ID0876_ID2339_ID1737_ID0663, SEQ ID NO: 66 (nucleic acid)", "DNA": "GAGCAGGCAGTCATTTGGTTCCCTTCTCTGAATGCATTGGCTCTGATCCACGGCGCCTCAGGAAGTGAAAGGGAGCAGGCAGTGAGGCCAAGCCATGAATGTTGGGCCCTTTTCTTAGAAAACAAAGGGTTCACTTTAGGCTAGGAGGAAACATCCGGGGGTCGGCGGAACTGAGTCTCCTTTGTGGAGCCCCTCATTTGCATGATAAACCCCGGGGACAAAGTGTGTTCTTGTTACTTGGACTGTTTCTTGGAAACTGCTGCTACCTGGAGCGAGTGAACACAGGGCAAGTATTCTCGCCCACAGCAACGTGTCATTGACAACGTTTTTGGCAGATGCAGCTCTTTCTGAACAGTAAGTCATTGTTGAGTGACATGAATAGGACGAGAGCTACAGAAAATGAAGGTTTCAAAAGATTGTCTAAAACAAAAGTCCTTTCAGTCCCGTATTCAGAGTTATAAATTCCGATTAGCCAAGGAAGCTCTGAGTCTAAATACCAGCAAAGCTCAGCCCCTGCAAGTGGGGACGAATTATTTGAAAGGTCATCCTAGAGACACTGAACAAAGGGCCTCTAGCAGCT"}}, "data": [{"system": "GSC7 cells", "test": "Nano-Glo Dual-Luciferase Reporter (Nanoglo DLR) enhancer assay in GSC7", "format": "cell-based, human", "source_text": "We chose an arrayed library format, with 160 bp enhancer fragments individually cloned into separate plasmids and arrayed in 96 well plates. These 160 bp were synthesized as a single pool of oligos, then randomly cloned into the plasmid and isolated. 20 bp×2 were needed for PCR amplification of the pool and so a library of 200 bp fragments was synthesized (Twist Biosciences). To meet our oligo synthesis strategy, ChIP-seq peaks expressed by GSCs were merged into a single oligo. This oligonucleotide pool was PCR-amplified (using limited cycles to reduce bias and ‘jackpot’ products meaning products which are easier to amplify will overtake the oligonucleotide pool) and cloned into the expression vector by an efficient Golden Gate reaction. 4579 individual plasmids were then randomly picked, isolated and plated as an arrayed plasmid DNA library on 96 well plates (×48). The bacterial colony picking and production of plasmid minipreps were supported by the Edinburgh Genome Foundry (S. Rosser). This library was then screened using the optimised Nanoglo DLR assay (Nano-Glo Dual-Luciferase Reporter Assay, Promega) in 384 well format. Each plate was transiently transfected together with PGK-FFLuc in a 1:10 ratio into GSC7 cells. 2 days later a Nanoglo DLR assay was performed and assayed on a plate reader.\nCells were seeded in 384 well plates using a multidrop and transfected the following day using the CyBio Felix. Two days later the experiment was terminated with a Nanoglo DLR assay and all hits with a fold change to mCMV greater than 10 were Sanger sequenced and mapped back to the genome.\n(§1) Cells were seeded at the required density. The following day the transfection was carried out. For this the Plus reagent and Lipofectamine LTX (Life Technologies, 15338030) were each diluted in half the volume of Opti-MEM I Reduced-Serum Medium (further referred to as Optimem) (Life Technologies, 31985062). Following this step, the Plus reagent/Optimem premix was added to all DNA samples followed by the Lipofectamine LTX/Optimem premix. The transfection mix was incubated for 5 min at room temperature and then carefully dropped on the cells. Generally, no media change was carried out. Cells were analysed two days following transfection.\nThis assay consists of two steps. […] First, the Firefly Luciferase activity is measured which allows to normalise to transfection efficiency. In a second step, the activity of Nanoluc is determined which is the readout of the plasmid of interest. […] 20 μl cell lysate in 96 well format or 25 μl cell lysate in 384 well format was then transferred into the corresponding opaque white plate and luminescence was measured at for 0.1 s per well using the Ensight Multimode Plate Reader. […] Nanoluc activity was measured for 0.1 s per well, again using Ensight Multimode Plate Reader. […]", "values": [{"molecule": "B1", "activity compared with full CMV by Nanoglo DLR assay": "higher than CMV"}, {"molecule": "B2", "activity compared with full CMV by Nanoglo DLR assay": "higher than CMV"}, {"molecule": "B3", "activity compared with full CMV by Nanoglo DLR assay": "higher than CMV"}]}, {"system": "GSC7 cells", "test": "Flow cytometry of mNGreen reporter in GSC7", "format": "cell-based, human", "method": "as §1\nFor flow cytometry, cells were detached, pelleted and resuspended in an appropriate volume of flow cytometry buffer (1% BSA in PBS, v/v). Cells were stained with Draq7 (Abcam, ab109202, f.c. 0.1 μM) as a live/dead stain and analysed using the BD LSRFortessa cell analyser (4 lasers, BD Bioscience). Analysis of flow cytometry data was carried out in the FlowJo Analysis software (FlowJo, version 10.6.2).", "values": [{"molecule": "B1", "activity compared with full CMV by flow cytometry": "higher than CMV"}, {"molecule": "B2", "activity compared with full CMV by flow cytometry": "higher than CMV"}, {"molecule": "B3", "activity compared with full CMV by flow cytometry": "higher than CMV"}]}]}
